Reference: patent US20090191228A1

Key:
[1] = target: nOVA (non-treated ovalbumin, 1 mg/ml in PBS) (chicken) (UniProt P01012); assay: ELISA, immobilized OVA forms, Fn F4-5 in solution; normalized to nOVA
[2] = target: cdH5-0 (dH5-0 supernatant after 10 min at 16,000-18,000*g) (influenza virus H5N1 strain A/Vietnam/1203/04); assay: ELISA, immobilized H5 forms, Fn F4-5 in solution; normalized to cdH5-0
[3] = target: dH5-I (cdH5-0 misfolded by heat cycling at pH 7) (influenza virus H5N1 strain A/Vietnam/1203/04); assay: as above
[4] = target: dH5-II (cdH5-0 misfolded by heat cycling at pH 2) (influenza virus H5N1 strain A/Vietnam/1203/04); assay: as above
[5] = target: dH5-III (cdH5-0 incubated about 16 h at 47.5 C) (influenza virus H5N1 strain A/Vietnam/1203/04); assay: as above
[6] = target: fdH5-0 (ultrafiltrated dH5-0, flow-through of a 1,000 kDa cut-off filter) (influenza virus H5N1 strain A/Vietnam/1203/04); assay: as above
[7] = target: dOVA-1 (ovalbumin misfolded by HCl treatment, 40 min 37 C, neutralized) (chicken) (UniProt P01012); assay: ELISA, immobilized OVA forms
[8] = target: cdH5-0 (dH5-0 supernatant after 10 min at 16,000-18,000*g) (influenza virus H5N1 strain A/Vietnam/1203/04)
[9] = target: dH5-II (cdH5-0 misfolded by heat cycling at pH 2) (influenza virus H5N1 strain A/Vietnam/1203/04)
[10] = target: fdH5-0 (ultrafiltrated dH5-0, flow-through of a 1,000 kDa cut-off filter) (influenza virus H5N1 strain A/Vietnam/1203/04)

Question: With “fourth and fifth finger domain of fibronectin (Fn F4-5) (from UniProt P02751 183-275)” as the substance, how does the Normalized affinity, kD (%) [1] read?
Answer: 100%

Question: And the Normalized affinity, kD (%) [2]?
Answer: 100%

Question: And the Normalized affinity, kD (%) [3]?
Answer: 0%

Question: And the Normalized affinity, kD (%) [4]?
Answer: 88%

Question: And the Normalized affinity, kD (%) [5]?
Answer: 6%

Question: And the Normalized affinity, kD (%) [6]?
Answer: 69%

Question: How did the Scaled antibody binding (relative affinity kD, a.u.) [7] turn out when “monoclonal anti-OVA IgG (A6075, Sigma) (antibody)” was run?
Answer: 20.8 a.u.

Question: With “tissue type plasminogen activator (tPA) (from UniProt P00750 36-562) (enzyme)” as the substance, how does the Bmax [8] read?
Answer: 0.36

Question: And the Kd [8]?
Answer: 102 nM

Question: What about the Bmax [9] of the same substance?
Answer: 0.07

Question: And the Kd [9]?
Answer: 19 nM

Question: What about the Bmax [10] of the same substance?
Answer: 0.37

Question: And the Kd [10]?
Answer: 342 nM
